From PMC7519299

Target: ATP synthase subunit c (bovine), P32876
Conditions: remark: other sources report otherwise

B1: ATP synthase subunit c, P32876 62-136 (natural protein)
chain: DIDTAAKFIGAGAATVGVAGSGAGIGTVFGSLIIGYARNPSLKQQLFSYAILGFALSEAMGLFCLMVAFLILFAM
modifications: here or on the partner: trimethyllysine at position 43; trimethyllysine at position 43
B1 gave a stoichiometry N of 8.
